# Measured values published in article PMC12903045.
# Molecular target: NaV1.5 (main cardiac voltage-gated sodium channel) (mouse (endogenous in heart)) (UniProt Q9JJV9)
# Assay: co-IP
# Sequence of UniProt Q9JJV9 (Q9JJV9 whole entry): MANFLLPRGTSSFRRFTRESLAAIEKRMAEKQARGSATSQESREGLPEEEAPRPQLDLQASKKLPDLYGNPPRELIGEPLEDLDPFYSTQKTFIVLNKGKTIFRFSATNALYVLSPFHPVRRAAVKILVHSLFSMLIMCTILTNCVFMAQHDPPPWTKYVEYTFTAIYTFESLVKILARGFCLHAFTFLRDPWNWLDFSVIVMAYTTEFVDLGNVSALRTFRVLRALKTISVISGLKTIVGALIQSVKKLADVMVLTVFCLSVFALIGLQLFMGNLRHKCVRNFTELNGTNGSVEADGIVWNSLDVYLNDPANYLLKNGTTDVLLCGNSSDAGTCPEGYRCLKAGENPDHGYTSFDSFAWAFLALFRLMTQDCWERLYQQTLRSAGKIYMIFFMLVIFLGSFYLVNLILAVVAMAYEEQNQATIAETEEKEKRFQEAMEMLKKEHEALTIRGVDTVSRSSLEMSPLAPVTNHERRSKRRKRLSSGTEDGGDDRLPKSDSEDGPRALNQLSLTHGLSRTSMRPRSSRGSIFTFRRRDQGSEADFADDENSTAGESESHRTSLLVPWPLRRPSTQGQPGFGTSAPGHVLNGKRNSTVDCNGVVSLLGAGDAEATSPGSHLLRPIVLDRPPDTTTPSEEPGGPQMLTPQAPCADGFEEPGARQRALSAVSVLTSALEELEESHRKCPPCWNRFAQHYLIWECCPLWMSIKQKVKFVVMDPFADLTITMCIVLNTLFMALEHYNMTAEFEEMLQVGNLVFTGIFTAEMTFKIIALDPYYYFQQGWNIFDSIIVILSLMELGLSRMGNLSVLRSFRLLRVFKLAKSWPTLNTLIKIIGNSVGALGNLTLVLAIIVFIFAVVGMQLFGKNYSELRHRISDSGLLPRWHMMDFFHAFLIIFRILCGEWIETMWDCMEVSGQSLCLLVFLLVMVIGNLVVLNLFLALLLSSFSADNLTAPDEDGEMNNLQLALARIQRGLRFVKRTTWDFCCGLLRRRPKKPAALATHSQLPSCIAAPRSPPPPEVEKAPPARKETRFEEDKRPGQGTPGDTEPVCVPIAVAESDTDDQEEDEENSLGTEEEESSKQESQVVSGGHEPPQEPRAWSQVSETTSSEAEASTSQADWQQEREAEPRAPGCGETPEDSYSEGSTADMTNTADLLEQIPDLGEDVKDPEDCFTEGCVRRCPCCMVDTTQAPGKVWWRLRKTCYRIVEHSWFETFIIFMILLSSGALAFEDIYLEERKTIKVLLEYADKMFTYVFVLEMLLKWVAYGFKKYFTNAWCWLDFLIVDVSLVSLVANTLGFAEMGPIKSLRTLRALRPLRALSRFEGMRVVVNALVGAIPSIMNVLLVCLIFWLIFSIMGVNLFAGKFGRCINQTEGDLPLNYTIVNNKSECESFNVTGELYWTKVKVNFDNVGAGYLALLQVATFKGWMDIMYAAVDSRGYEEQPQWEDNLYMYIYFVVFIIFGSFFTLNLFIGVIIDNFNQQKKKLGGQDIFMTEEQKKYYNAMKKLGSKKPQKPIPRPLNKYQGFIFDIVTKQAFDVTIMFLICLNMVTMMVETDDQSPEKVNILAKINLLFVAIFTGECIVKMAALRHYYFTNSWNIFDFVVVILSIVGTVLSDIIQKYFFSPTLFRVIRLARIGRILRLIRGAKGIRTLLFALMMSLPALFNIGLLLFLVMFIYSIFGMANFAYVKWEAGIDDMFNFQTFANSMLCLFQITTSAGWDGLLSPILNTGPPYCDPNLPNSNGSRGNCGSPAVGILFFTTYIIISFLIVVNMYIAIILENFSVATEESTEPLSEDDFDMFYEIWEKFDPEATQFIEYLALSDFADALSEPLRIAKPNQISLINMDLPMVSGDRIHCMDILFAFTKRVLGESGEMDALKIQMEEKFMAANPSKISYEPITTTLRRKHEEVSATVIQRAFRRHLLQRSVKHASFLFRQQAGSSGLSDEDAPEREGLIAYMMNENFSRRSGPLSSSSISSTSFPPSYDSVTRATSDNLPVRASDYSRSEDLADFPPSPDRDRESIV
substance,measurement,value
FGF13 (fibroblast growth factor homologous factor 13) (from UniProt P70377 1-245) (natural protein),percent of FGF13 depleted from the lysate by immunoprecipitation of NaV1.5,35%
